The supplement of paper PMC10567573
± gives the standard deviation.

Experiment: protein stability index of a GFP-peptide fusion (GPS, HEK-293T) (PSI 1-6); higher = more stable
[1] = treatment: DMSO, c terminus: a fixed tail appended
[2] = treatment: MLN4924 1 uM, 8 h, c terminus: a fixed tail appended
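Note: 24-mer peptide tiles fused after GFP, lentivirally expressed, FACS-sorted into six equal bins by GFP/DsRed ratio, decoded by Illumina sequencing, PSI is the read-weighted mean bin number.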

Row | Sequence | protein stability index [1] | protein stability index [2] | protein stability index (treatment: DMSO, c terminus: native) | protein stability index (treatment: MLN4924 1 uM, 8 h, c terminus: native)
1 | VDPANDTFDIDPMVVTDCIQVDPP [MCOLN1] | 5.09 ± 0.38 | 5.22 ± 0.28 |  | 
2 | VEGRKHVDVQTELYLEEIADRIIE [RSPH3] | 2.55 ± 0.33 | 2.77 ± 0.41 |  | 
3 | VELPCRISPGKNATGMEVGWYRPP [MOG] | 2.33 ± 0.091 | 2.32 ± 0.28 |  | 
4 | VFDSEKCVSIPDVVGWFVLFYKPG [GULP1] | 2.8 ± 1 | 2.83 ± 0.33 |  | 
5 | VFIDFSVYNANINLFCVLRLVVEF [PKD2L1] | 3.51 ± 0.61 | 2.7 ± 0.4 |  | 
6 | VGGGSGDEASAATPPSSRRVWSPP [ZBTB22] | 4.66 ± 0.2 | 4.76 ± 0.34 |  | 
7 | VGVATADAPLHSVGYTTLVGNNHE [SPSB1] | 4.25 ± 0.45 | 4.16 ± 0.19 |  | 
8 | VILNYPSPWDQEERPAQRDCSFPG [TRAF3IP2] | 2.79 ± 0.21 | 3.15 ± 0.25 |  | 
9 | VIMWDIGGRKGTAIELQGHNDRVQ [WDFY2] | 2.57 ± 0.64 | 2.45 ± 0.17 |  | 
10 | VKEWFGLGGEQAEEKAFESVIEPV [MIA2] | 4.23 ± 0.23 | 4.04 ± 0.15 |  | 
11 | VKISDFGLAKCNGLSHSHDLSMDG [RIPK4] | 2.95 ± 0.42 | 3.23 ± 0.37 |  | 
12 | VKTSVPSSKSSGDLVDLFDGTSQS [CLINT1] | 4.71 ± 0.24 | 4.8 ± 0.18 |  | 
13 | VLEMFDLRMMVENIMNKEAFMNQE [RHOBTB1] | 2.47 ± 0.45 | 2.33 ± 0.26 |  | 
14 | VLITVEDVNDNSPELTITSLFSPV [PCDHGA10] | 2.3 ± 0.49 | 2.07 ± 0.19 |  | 
15 | VLPHVPLGVIQRDLAKTGCVDLTI [AUP1] | 2.14 ± 0.25 | 2.37 ± 0.37 |  | 
16 | VLPKPKVISCLEQGEEPWVQVSPE [ZNF75A] | 4.21 ± 0.23 | 4.07 ± 0.3 |  | 
17 | VLQDRAAKGSLGTQIGFADLMGVL [FEM1A] | 2.15 ± 0.31 | 2.22 ± 0.35 |  | 
18 | VLYPDGQAQMIHPKPADFRNPGPG [INTS4] | 3.59 ± 0.098 | 3.67 ± 0.3 |  | 
19 | VNADIEKVNQNQAKRCTVIGGSGF [NSDHL] | 3.79 ± 0.2 | 3.87 ± 0.19 |  | 
20 | VNPAYPESRYTSDYFISYGIEHAQ [ETS1] | 2.8 ± 0.51 | 2.8 ± 0.4 |  | 
21 | VNVEMDAAPGVDLTRVLAEMREQY [KRT15] | 3.13 ± 0.42 | 3.27 ± 0.31 |  | 
22 | VNVPGSFVCQCYSGYALAEDGKRC [MATN2] | 2.75 ± 0.42 | 3.05 ± 0.46 |  | 

Row | Sequence | protein stability index [1] | protein stability index [2] | protein stability index (treatment: DMSO, c terminus: native) | protein stability index (treatment: MLN4924 1 uM, 8 h, c terminus: native)
23 | VPFDIFTEEVKFYQLGEEALLKFR [KCNA4] | 2.32 ± 0.36 | 2.54 ± 0.19 |  | 
24 | VPIDIFSEEIRFYQLGEEAMEKFR [KCNA3] | 3.14 ± 0.28 | 3.23 ± 0.18 |  | 
25 | VPQDPDLEEEEEEEDLVLTCEDDE [ZBTB22] | 5.59 ± 0.22 | 5.64 ± 0.25 |  | 
26 | VQADQERERQRRLEVEREAEKKRE [LRRC59] | 5.52 ± 0.093 | 5.64 ± 0.17 |  | 
27 | VQAPSYGARPVSSAASVYAGAGGS [KRT18] | 3.91 ± 0.081 | 3.82 ± 0.69 |  | 
28 | VQDMGQEDMLLPLAWRIVNDTYRT [CCNC] | 2.37 ± 0.21 | 2.57 ± 0.43 |  | 
29 | VRDQISHCTVKLRQTTGLMEYCLE [TRIM9] | 2.59 ± 0.31 | 2.65 ± 0.36 |  | 
30 | VRVRQDSGAEGHSHSCYHDTRSGF [TRIM35] | 3.51 ± 0.25 | 3.62 ± 0.31 |  | 
31 | VSFEDPEFKSSFSQSFSLYVKYQV [ATE1] | 2.99 ± 0.81 | 2.51 ± 0.61 |  | 
32 | VSGSPVTQNHAASALPTGSPKRGT [FBF1] | 5.27 ± 0.16 | 5.22 ± 0.25 |  | 
33 | VSKELRMYDEKAHEWKSLAPMDAP [KLHL13] | 3.73 ± 0.36 | 4.04 ± 0.11 |  | 
34 | VTSQQEPQIPVDRGSETTYESSAD [TAF7L] | 5.21 ± 0.25 | 5.52 ± 0.23 |  | 
35 | VVLDMEEGTLGYAIGGTYLGPAFR [SPSB2] | 2.37 ± 0.24 | 2.19 ± 0.074 |  | 
36 | VVQTLYPFSSVTEEELNFEKGETM [NCK2] | 3.66 ± 0.17 | 3.77 ± 0.29 |  | 
37 | WASRREAFAQRPSSAPDLMCLSPD [CDC25B] | 3.85 ± 0.21 | 4.07 ± 0.2 |  | 
38 | WENRHEGVFKFLRSEAVAQLWGQK [ELF3] | 2.43 ± 0.32 | 2.67 ± 0.35 |  | 
39 | WFPPAIMGVVSLVFLIIYYLDPSV [ARL6IP1] | 2.52 ± 0.46 | 3.28 ± 0.64 |  | 
40 | WGVVSHSFPATLETQEQDVDLVQK [MMP1] | 4.58 ± 0.34 | 4.73 ± 0.43 |  | 
41 | WHTIAPMGTRRKHLGCAVYQDMIY [KLHL20] |  | 1.93 ± 0.96 |  | 
42 | WIFVNLTVRFCILGKESFYDTFHT [HACD3] | 3.29 ± 0.26 | 3.05 ± 0.12 |  | 
43 | WLVHRDPEGSVSGSQPNSGLALES [NFE2L1] | 3.78 ± 0.31 | 3.97 ± 0.12 |  | 
44 | WNDCISSGLRGGILIELAMRGRIY [GOLPH3L] | 2.89 ± 0.45 | 2.48 ± 0.53 |  | 

Row | Sequence | protein stability index [1] | protein stability index [2] | protein stability index (treatment: DMSO, c terminus: native) | protein stability index (treatment: MLN4924 1 uM, 8 h, c terminus: native)
45 | WPKLCPCLRSGIGSSQALGPSPPL [MYCL] | 2.46 ± 0.41 | 2.47 ± 0.14 |  | 
46 | WQQQSYLDSGIHSGATTTAPSLSG [CTNNB1] | 3.71 ± 0.1 | 3.78 ± 0.33 |  | 
47 | WRWQLYAAQSTKSPWNFLGDELYE [CLPTM1] | 2.79 ± 0.38 | 2.39 ± 0.3 |  | 
48 | WTHVTLLIVVTQSHLVIHNLFEGM [CDS2] | 3.22 ± 0.23 | 3.34 ± 0.35 |  | 
49 | WYWHGDVNSNKVVMSGVKCSGTEL [LOXL2] | 2.68 ± 0.53 | 2.75 ± 0.28 |  | 
50 | YAIVRRPTVGIGGDRLQFNQLSQA [EFHC1] | 2.06 ± 0.21 | 2.5 ± 0.19 |  | 
51 | YARTPTLDPDTMHARLRLSADRLT [TRIM14] | 2.91 ± 0.17 | 3.27 ± 0.33 |  | 
52 | YDQQIWEKSIEQTQIKGLKNKPKK [PHTF1] | 4.9 ± 0.093 | 5.17 ± 0.083 |  | 
53 | YDRVAQLDQLLHYRKKSAEFPDFY [CHGB] | 2.72 ± 0.14 | 2.8 ± 0.21 |  | 
54 | YGKDIVKACSLLDVAVHMPCLGHT [ZBED1] | 2.14 ± 0.3 | 2.29 ± 0.33 |  | 
55 | YGPLKPLPQTPHLEEDLKEVLRSE [MYBL2] | 5 ± 0.19 | 4.95 ± 0.24 |  | 
56 | YHTGKTPFVCPECGQPCSQKSGLI [ZNF649] | 2.53 ± 0.59 | 3.24 ± 0.58 |  | 
57 | YKCSDCGKTFKQSSNLGQHQRIHT [ZNF232] | 4.22 ± 0.18 | 4.3 ± 0.45 |  | 
58 | YLTEGLLQFTILLSLIGVRVDVDT [NFE2L1] | 2.66 ± 0.15 | 3.25 ± 0.35 |  | 
59 | YMIHEPEPHILLFRRPLPKKPKK [CKS1B] |  |  | 2.55 ± 0.23 | 2.99 ± 0.5
60 | YQLLATHVPTVWAIDQYRVCQEVL [RHOBTB1] | 2.61 ± 0.59 | 2.38 ± 0.47 |  | 
61 | YSHEVSLTADSRKSHLIFPQPNYA [PCDHGA10] | 2.79 ± 0.48 | 2.74 ± 0.29 |  | 
62 | YSKTFQRSNVDFLETPELTSTMLV [NECAB1] | 2.18 ± 0.37 | 2.39 ± 0.35 |  | 
63 | YSLAEDTIQGVPLSSYISINSDTG [PCDHGA10] | 3.53 ± 0.2 | 3.47 ± 0.28 |  | 
64 | YTKLPSSLQSTGKCLLYCNGVLEP [SLC25A39] | 2.64 ± 0.62 | 2.23 ± 0.35 |  | 
65 | YTVKDKATGEVLGQFYLDLYPREG [NLN] | 3.1 ± 0.69 | 2.8 ± 0.77 |  | 
66 | YYSVETVTLLVALKVRYRERITIL [PPP2CA] | 2.63 ± 0.69 | 2.56 ± 0.58 |  | 
